Source: US11278600B2, “Human alpha-galactosidase variants” (Codexis, Inc., priority 2014, dated 2022)

Columns and labels:
Assay type in all cases: biochemical
[1] = HTP-analysis of yeast culture supernatants, no challenge (MUGal hydrolysis); details: activity of the variant/activity of Rd3BB (SEQ ID NO: 13)
Procedure, shortened: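 GLA variants were expressed in INVSc1 yeast grown in SD-Ura broth with glucose at 30° C., and culture supernatants were collected after 66-84 h. Supernatant was mixed with McIlvaine buffer pH 4.8 and MUGal (2 mM stock) in 50 mM citrate, 200 mM KCl, pH 4.6, incubated at 37° C. for 30-180 minutes, then quenched with sodium carbonate.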

[2] = HTP-analysis of supernatants pretreated with base (MUGal hydrolysis); details: activity of the variant/activity of Rd3BB (SEQ ID NO: 13); challenge at pH 9.7
Procedure, shortened: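 GLA variants secreted from yeast INVSc1; culture supernatants pre-incubated with McIlvaine buffer pH 7.0–8.2 or 200 mM bicarbonate pH 9.1–9.7 at 37° C. for 1–18 h. Residual activity: MUGal (4 mM stock) hydrolysis at pH 4.3–4.8, 37° C., 30–180 min, carbonate quench; fluorescence Ex 355/Em 448 nm.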

[3] = HTP-analysis of supernatants pretreated with acid (MUGal hydrolysis); details: activity of the variant/activity of Rd3BB (SEQ ID NO: 13); challenge at pH 3.7
Procedure, shortened: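 Yeast INVSc1 supernatant, GLA variants; acid challenge: McIlvaine pH 3.3-4.3, 37° C., 1-3 h. Assay: MUGal in McIlvaine pH 4.8 plus citrate pH 4.3, 37° C., 30-180 min, Na2CO3 stop, Ex 355/Em 448 nm.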

Row | Molecule | Relative Activity of GLA Variants After No Challenge (NC) [1] | Relative Activity of GLA Variants After Challenge at pH 9.7 [2] | Relative Activity of GLA Variants After Challenge at pH 3.7 [3]
1 | 539 (protein, Synthetic Polypeptide sequence of Variant No. 539 of mature Human GLA) LDNGLARTPTMGWLHWERFMCNLDCQEEPDSCISEKLFMEMAERMVSEGWKDAGYEYLCIDDCWMAPQRDSEGRLQADPQRFPHGIRQLANHVHSKGLKLGIYADVGNKTCAGFPGSFGYYDIDAQTFADWGVDLLKFDGCYCDSLENLADGYKHMSLALNRTGRSIVYSCEWPLYMWPFQKPNYTEIRQYCNHWRNFADIDDSWASIKSILDWTSRNQERIVDVAGPGGWNDPDMLVIGNFGLSWDQQVTQMALWAIMAAPLFMSNDLRHISPQAKALLQDKDVIHINQDPLGKQGYQLRKGDNFEVWERPLSGDAWAVAIINRQEIGGPRSYTIPVASLGKGVACNPACFITQLLPVKRQLGFYNWTSRLKSHINPTGTVLLQLENTMQMSLKDLL | + (+ = 1.5 to 5 relative activity over Rd3BB (SEQ ID NO: 13)) | ++ (++ = >5 to 10 relative activity over Rd3BB (SEQ ID NO: 13)) | + (+ = 1.5 to 5 relative activity over Rd3BB (SEQ ID NO: 13))
2 | 540 (protein, Synthetic Polypeptide sequence of Variant No. 540 of mature Human GLA) LDNGLARTPTMGWLHWERFMCNLDCQEEPDSCISEKLFMEMAERMVSEGWKDAGYEYLCIDDCWMAPQRDSEGRLQADPQRFPHGIRQLANHVHSKGLKLGIYADVGNKTCAGFPGSFGYYDIDAQTFADWGVDLLKFDGCYCDSLENLADGYKHMSLALNRTGRSIVYSCEWPLYMWPFQKPNYTEIRQYCNHWRNFADIDDSWASIKSILDWTSRNQERIVDVAGPGGWNDPDMLVIGNFGLSWDQQVTQMALWAIMAAPLFMSNDLRHISPQAKALLQDKDVIMINQDPLGKQGYQLRKGDNFEVWERPLSGDAWAVAIINRQEIGGPRSYTIPVASLGKGVACNPACFITQLLPVKRQLGFYNWTSRLKSHINPTGTVLLQLENTMQMSLKDLL | + (+ = 1.5 to 5 relative activity over Rd3BB (SEQ ID NO: 13)) | ++ (++ = >5 to 10 relative activity over Rd3BB (SEQ ID NO: 13)) | + (+ = 1.5 to 5 relative activity over Rd3BB (SEQ ID NO: 13))
3 | 541 (protein, Synthetic Polypeptide sequence of Variant No. 541 of mature Human GLA) LDNGLARTPTMGWLHWERFMCNLDCQEEPDSCISEKLFMEMAERMVSEGWKDAGYEYLCIDDCWMAPQRDSEGRLQADPQRFPHGIRQLANHVHSKGLKLGIYADVGNKTCAGFPGSFGYYDIDAQTFADWGVDLLKFDGCYCDSLENLADGYKHMSLALNRTGRSIVYSCEWPLYMWPFQKPNYTEIRQYCNHWRNFADIDDSWASIKSILDWTSRNQERIVDVAGPGGWNDPDMLVIGNFGLSWDQQVTQMALWAIMAAPLFMSNDLRHISPQAKALLQAKDVIAINQDPLGKQGYQLRKGDNFEVWERPLSGDAWAVAIINRQEIGGPRSYTIPVASLGKGVACNPACFITQLLPVKRQLGFYNWTSRLKSHINPTGTVLLQLENTMQMSLKDLL | + (+ = 1.5 to 5 relative activity over Rd3BB (SEQ ID NO: 13)) | ++ (++ = >5 to 10 relative activity over Rd3BB (SEQ ID NO: 13)) | + (+ = 1.5 to 5 relative activity over Rd3BB (SEQ ID NO: 13))
4 | 542 (protein, Synthetic Polypeptide sequence of Variant No. 542 of mature Human GLA) LDNGLARTPTMGWLHWERFMCNLDCQEEPDSCISEKLFMEMAERMVSEGWKDAGYEYLCIDDCWMAPQRDSEGRLQADPQRFPHGIRQLANHVHSKGLKLGIYADVGNKTCAGFPGSFGYYDIDAQTFADWGVDLLKFDGCYCDSLENLADGYKHMSLALNRTGRSIVYSCEWPLYMWPFQKPNYTEIRQYCNHWRNFADIDDSWASIKSILDWTSRNQERIVDVAGPGGWNDPDMLVIGNFGLSWDQQVTQMALWAIMAAPLFMSNDLRHISPQAKALLQGKDVIAINQDPLGKQGYQLRKGDNFEVWERPLSGDAWAVAIINRQEIGGPRSYTIPVASLGKGVACNPACFITQLLPVKRQLGFYNWTSRLKSHINPTGTVLLQLENTMQMSLKDLL | + (+ = 1.5 to 5 relative activity over Rd3BB (SEQ ID NO: 13)) | ++ (++ = >5 to 10 relative activity over Rd3BB (SEQ ID NO: 13)) | + (+ = 1.5 to 5 relative activity over Rd3BB (SEQ ID NO: 13))
5 | 543 (protein, Synthetic Polypeptide sequence of Variant No. 543 of mature Human GLA) LDNGLARTPTMGWLHWERFMCNLDCQEEPDSCISEKLFMEMAERMVSEGWKDAGYEYLCIDDCWMAPQRDSEGRLQADPQRFPHGIRQLANHVHSKGLKLGIYADVGNKTCAGFPGSFGYYDIDAQTFADWGVDLLKFDGCYCDSLENLADGYKHMSLALNRTGRSIVYSCEWPLYMWPFQKPNYTEIRQYCNHWRNFADIDDSWASIKSILDWTSRNQERIVDVAGPGGWNDPDMLVIGNFGLSWDQQVTQMALWAIMAAPLFMSNDLRHISPQAKALLQMKDVIAINQDPLGKQGYQLRKGDNFEVWERPLSGDAWAVAIINRQEIGGPRSYTIPVASLGKGVACNPACFITQLLPVKRQLGFYNWTSRLKSHINPTGTVLLQLENTMQMSLKDLL | + (+ = 1.5 to 5 relative activity over Rd3BB (SEQ ID NO: 13)) | + (+ = 1.5 to 5 relative activity over Rd3BB (SEQ ID NO: 13)) | + (+ = 1.5 to 5 relative activity over Rd3BB (SEQ ID NO: 13))
6 | 516 (protein, Synthetic Polypeptide sequence of Variant No. 516 of mature Human GLA) LENGLARTPTMGWLHWERFMCNLDCQEEPDSCISEKLFMEMAERMVSEGWKDAGYEYLCIDDCWMAPQRDSEGRLQADPQRFPHGIRQLANHVHSKGLKLGIYADVGNKTCAGFPGSFGYYDIDAQTFADWGVDLLKFDGCYCDSLENLADGYKHMSLALNRTGRSIVYSCEWPLYMWPFQKPNYTEIRQYCNHWRNFADIDDSWASIKSILDWTSRNQERIVDVAGPGGWNDPDMLVIGNFGLSWDQQVTQMALWAIMAAPLFMSNDLRHISPQAKALLQDKDVIAINQDPLGKQGYQLRKGDNFEVWERPLSGDAWAVAIINRGEIGGPRSYTIPVASLGKGVACNPACFITQLLPVKRQLGFYNWTSRLKSHINPTGTVLLQLENTMQMSLKDLL | + (+ = 1.5 to 5 relative activity over Rd3BB (SEQ ID NO: 13)) | + (+ = 1.5 to 5 relative activity over Rd3BB (SEQ ID NO: 13)) | +++ (+++ = >10 relative activity over Rd3BB (SEQ ID NO: 13))
7 | 544 (protein, Synthetic Polypeptide sequence of Variant No. 544 of mature Human GLA) LDNGLARTPTMGWLHWERFMCNLDCQEEPDSCISEKLFMEMAERMVSEGWKDAGYEYLCIDDCWMAPQRDSEGRLQADPQRFPHGIRQLANHVHSKGLKLGIYADVGNKTCAGFPGSFGYYDIDAQTFADWGVDLLKFDGCYCDSLENLADGYKHMSLALNRTGRSIVYSCEWPLYMWPFQKPNYTEIRQYCNHWRNFADIDDSWASIKSILDWTSRNQERIVDVAGPGGWNDPDMLVIGNFGLSWDQQVTQMALWAIMAAPLFMSNDLRHISPQAKALLQVKDVIAINQDPLGKQGYQLRKGDNFEVWERPLSGDAWAVAIINRQEIGGPRSYTIPVASLGKGVACNPACFITQLLPVKRQLGFYNWTSRLKSHINPTGTVLLQLENTMQMSLKDLL | + (+ = 1.5 to 5 relative activity over Rd3BB (SEQ ID NO: 13)) | + (+ = 1.5 to 5 relative activity over Rd3BB (SEQ ID NO: 13)) | + (+ = 1.5 to 5 relative activity over Rd3BB (SEQ ID NO: 13))
8 | 545 (protein, Synthetic Polypeptide sequence of Variant No. 545 of mature Human GLA) LDNGLARTPTMGWLHWERFMCNLDCQEEPDSCISEKLFMEMAERMVSEGWKDAGYEYLCIDDCWMAPQRDSEGRLQADPQRFPHGIRQLANHVHSKGLKLGIYADVGNKTCAGFPGSFGYYDIDAQTFADWGVDLLKFDGCYCDSLENLADGYKHMSLALNRTGRSIVYSCEWPLYMWPFQKPNYTEIRQYCNHWRNFADIDDSWASIKSILDWTSRNQERIVDVAGPGGWNDPDMLVIGNFGLSWDQQVTQMALWAIMAAPLFMSNDLRHISPQAKALLQDKDVIAINQDPLGAQGYQLRKGDNFEVWERPLSGDAWAVAIINRQEIGGPRSYTIPVASLGKGVACNPACFITQLLPVKRQLGFYNWTSRLKSHINPTGTVLLQLENTMQMSLKDLL | + (+ = 1.5 to 5 relative activity over Rd3BB (SEQ ID NO: 13)) | ++ (++ = >5 to 10 relative activity over Rd3BB (SEQ ID NO: 13)) | + (+ = 1.5 to 5 relative activity over Rd3BB (SEQ ID NO: 13))
